The test system of the data set is Chk1. As to the kind of experiment: Chk1 kinase activity of enzyme preparations, ADP production coupled through pyruvate kinase and lactate dehydrogenase (Syntide-2 substrate). Format: biochemical, human. The note with it: for Rate/min: prep concentration 75 nM (HA2-013), 2 nM (HA2-022), 7.3 nM (HB2-061), 0.125 mM Syntide-2, 0.15 mM ATP; for Activity: relative to full length Chk1 (control = 1). The procedure: The kinase activity of the hChk1 was determined by monitoring the ADP production through enzymatic actions of pyruvate kinase and lactate dehydrogenase. […] Unlike the other forms of Chk1 which have proven difficult to work with (isolate, purify, crystallize, etc), the 1-289 kinase domain form of the human Chk1 enzyme facilitated crystallography, enzyme characterization, and high throughput screening of inhibitors. In particular, the Chk1 kinase domain was used to determine its 3-dimensional structure, which provides unique structural information for inhibitor design for therapeutic development.
The enzymatic activity of a kinase is measured by its ability to catalyze the transfer of a phosphate residue from a nucleoside triphosphate to an amino acid side chain in a selected protein target. The conversion of ATP to ADP generally accompanies the catalytic reaction. Herein, a synthetic substrate peptide, Syntide-2, having amino acid sequence PLARTLSVAGLPGKK (SEQ ID NO. 11) was utilized. The production of ADP from ATP that accompanies phosphoryl transfer to the substrate was coupled to oxidation of NADH using phosphoenolpyruvate (PEP) through the actions of pyruvate kinase (PK) and lactic dehydrogenase (LDH). The oxidation of NADH was monitored by following the decrease of absorbance at 340 nm (e340=6.22 cm−1 mM−1) using a HP8452 spectrophotometer. Typical reaction solutions contained: 4 mM PEP, 0.15 mM NADH, 28 units of LDH/mL, 16 units of PK/mL, 3 mM DTT, 0.125 mM Syntide-2, 0.15 mM ATP and 25 mM MgCl2 in 50 mM TRIS pH 7.5; 400 mM NaCl. Assays were initiated with 10 nM of kinase domain of Chk1, KH289. Ki values were determined by measuring initial enzyme activity in the presence of varying concentrations of inhibitors. The data were analyzed using Enzyme Kinetic and Kaleidagraph software.
The table below (Table 3) compares three different preparations of Chk1. The first preparation is the full length form, which comprises amino acids 1-476 of SEQ ID NO. 2. The next preparation contains proteolytically cleaved fragments, a mixture of Chk1 protein fragments obtained from the full-length protein during fermentation. The exact enzymes involved and cleavage site generated for these fragments is unknown. […] The third preparation is the kinase domain of amino acids 1-289 of SEQ ID NO. 2 (KH289) As mentioned above, the assay used detects the ADP product by coupling through the enzymatic actions of pyruvate kinase and lactate dehydrogenase.

Chk1, sequence (O14757 9-265 limits assumed): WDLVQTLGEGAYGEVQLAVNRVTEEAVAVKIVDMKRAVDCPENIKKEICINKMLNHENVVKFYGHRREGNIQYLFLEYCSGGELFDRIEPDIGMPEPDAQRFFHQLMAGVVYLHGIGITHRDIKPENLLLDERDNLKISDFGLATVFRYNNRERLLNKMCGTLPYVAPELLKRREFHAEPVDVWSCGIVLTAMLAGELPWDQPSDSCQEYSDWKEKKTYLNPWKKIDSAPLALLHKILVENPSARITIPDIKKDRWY

B1: HB2-061: preparation of the kinase domain of amino acids 1-289 of SEQ ID NO. 2 (KH289) (protein, listed as Homo sapiens)
chain: MAVPFVEDWDLVGTLGEGAYGEVQLAVNRVTEEAVAVKIVDMKRAVDCPENIKKEICINKMLNHENVVKFYGHRREGNIQYLFLEYCSGGELFDRIEPDIGMPEPDAQRFFHQLMAGVVYLHGIGITHRDIKPENLLLDERDNLKISDFGLATVFRYNNRERLLNKMCGTLPYVAPELLKRREFHAEPVDVWSCGIVLTAMLAGELPWDQPSDSCQEYSDWKEKKTYLNPWKKIDSAPLALLHKILVENPSARITIPDIKKDRWYNKPLKKGAKRPRVTSGGVSESPSG
For the molecule B1, the Rate/min was 0.0200 and the Activity entry is “+10 fold”.

B2: KH289: human Chk1 kinase domain (AA 1-289), C-terminal 6xHis-tag (protein)
chain: MAVPFVEDWDLVGTLGEGAYGEVQLAVNRVTEEAVAVKIVDMKRAVDCPENIKKEICINKMLNHENVVKFYGHRREGNIQYLFLEYCSGGELFDRIEPDIGMPEPDAQRFFHQLMAGVVYLHGIGITHRDIKPENLLLDERDNLKISDFGLATVFRYNNRERLLNKMCGTLPYVAPELLKRREFHAEPVDVWSCGIVLTAMLAGELPWDQPSDSCQEYSDWKEKKTYLNPWKKIDSAPLALLHKILVENPSARITIPDIKKDRWYNKPLKKGAKRPRVTSGGVSESPSGHHHHHH
Consider B2, for which the “enzymatic activity compared with the full length protein” value (ADP production via pyruvate kinase and lactate dehydrogenase) is “higher enzymatic activity than the full length protein”.

B3: HA2-013: preparation of the full length form of human Chk1, amino acids 1-476 of SEQ ID NO. 2 (protein, listed as Homo sapiens)
chain: MAVPFVEDWDLVGTLGEGAYGEVQLAVNRVTEEAVAVKIVDMKRAVDCPENIKKEICINKMLNHENVVKFYGHRREGNIQYLFLEYCSGGELFDRIEPDIGMPEPDAQRFFHQLMAGVVYLHGIGITHRDIKPENLLLDERDNLKISDFGLATVFRYNNRERLLNKMCGTLPYVAPELLKRREFHAEPVDVWSCGIVLTAMLAGELPWDQPSDSCQEYSDWKEKKTYLNPWKKIDSAPLALLHKILVENPSARITIPDIKKDRWYNKPLKKGAKRPRVTSGGVSESPSGFSKHIQSNLDFSPVNSASSEENVKYSSSQPEPRTGLSLWDTSPSYIDKLVQGISFSQPTCPDHMLLNSGLLGTPGSSQNPWQRLVKRMTRFFTKLDADKSYQCLKETCEKLQYQWKKSCMNQVTISTTDRRNNKLIFKVNLLEMDDKILVDFRLSKGDGLEFKRHFLKIKGKLIDIVSSQKVWLPAT
Consider B3, for which the Rate/min amounted to 0.0190 and the Activity is given as 1 (control) fold.
